Patent US20210300987A1 (published 2021)
Positions count from the first letter of the chain named.

T1: Astn1 P1268L (control peptide) peptide on HLA-A*02:01 (human)
T1 peptide: KLYGLDWAEL

T2: HA-1^H (minor histocompatibility antigen 1, HMHA1 gene, H allele) peptide on HLA-A*02:01 (human)
T2 peptide: VLHDDLLEA

T3: HA-1^R (minor histocompatibility antigen 1, HMHA1 gene, R allele) peptide on HLA-A*02:01 (human)
T3 peptide: VLRDDLLEA

B1: TCR_1 (TCR, V domains shown)
Valpha: GENVEQHPSTLSVQEGDSAVIKCTYSDSASNYFPWYKQELGKGPQLIIDIRSNVGEKKDQRIAVTLNKTAKHFSLHITETQPEDSAVYFCAASDLNFGKGTSLLVTP
Vbeta: DTGVSQNPRHKITKRGQNVTFRCDPISEHNRLYWYRQTLGQGPEFLTYFQNEAQLEKSRLLSDRFSAERPKGSFSTLEIQRTEQGDSAMYLCASSLVSRVDGYTFGSGTRLTVV
B2: TCR_2 (TCR, V domains shown)
Valpha: GENVEQHPSTLSVQEGDSAVIKCTYSDSASNYFPWYKQELGKGPQLIIDIRSNVGEKKDQRIAVTLNKTAKHFSLHITETQPEDSAVYFCAAHTPGYSTLTFGKGTMLLVSP
Vbeta: DTGVSQNPRHKITKRGQNVTFRCDPISEHNRLYWYRQTLGQGPEFLTYFQNEAQLEKSRLLSDRFSAERPKGSFSTLEIQRTEQGDSAMYLCASSPRAGGETQYFGPGTRLLVL
B3: TCR_3 (TCR, V domains shown)
Valpha: SQQGEEDPQALSIQEGENATMNCSYKTSINNLQWYRQNSGRGLVHLILIRSNEREKHSGRLRVTLDTSKKSSSLLITASRAADTASYFCATGDQTGANNLFFGTGTRLTVIP
Vbeta: DTGVSQNPRHKITKRGQNVTFRCDPISEHNRLYWYRQTLGQGPEFLTYFQNEAQLEKSRLLSDRFSAERPKGSFSTLEIQRTEQGDSAMYLCASSLTRTEKLFFGSGTQLSVL
B4: TCR_5 (TCR, V domains shown)
Valpha: TQLLEQSPQFLSIQEGENLTVYCNSSSVFSSLQWYRQEPGEGPVLLVTVVTGGEVKKLKRLTFQFGDARKDSSLHITAAQTGDTGLYLCAGAGNNDMRFGAGTRLTVKP
Vbeta: B3 Vbeta with T97V, T99G, E100I, K101E, L102A, S106Q, Q109R, S111T, L113V
B5: TCR_4 (TCR, V domains shown)
Valpha: GENVEQHPSTLSVQEGDSAVIKCTYSDSASNYFPWYKQELGKGPQLIIDIRSNVGEKKDQRIAVTLNKTAKHFSLHITETQPEDSAVYFCAGRGKLTFGTGTRLTIIP
Vbeta: B3 Vbeta with T97V, T99D
B6: TCR_6 (TCR, V domains shown)
Valpha: GEDVEQSLFLSVREGDSSVINCTYTDSSSTYLYWYKQEPGAGLQLLTYIFSNMDMKQDQRLTVLLNKKDKHLSLRIADTQTGDSAIYFCAEKWIIFGKGTRLHILP
Vbeta: B3 Vbeta with R98T, T99P, E100D, K101G, L102Y, F103T, Q109R, S111T, L113V
B7: TCR_1, P01849 1-136 (TCR, not shown: a dimerising Fc or GST)
TCR alpha: GENVEQHPSTLSVQEGDSAVIKCTYSDSASNYFPWYKQELGKGPQLIIDIRSNVGEKKDQRIAVTLNKTAKHFSLHITETQPEDSAVYFCAASDLNFGKGTSLLVTPHIQNPEPAVYQLKDPRSQDSTLCLFTDFDSQINVPKTMESGTFITDKTVLDMKAMDSKSNGAIAWSNQTSFTCQDIFKETNATYPSSDVPCDATLTEKSFETDMNLNFQNLSVMGLRILLLKVAGFNLLMTLRLWSS
TCR beta: DTGVSQNPRHKITKRGQNVTFRCDPISEHNRLYWYRQTLGQGPEFLTYFQNEAQLEKSRLLSDRFSAERPKGSFSTLEIQRTEQGDSAMYLCASSLVSRVDGYTFGSGTRLTVVE
B8: TCR_3, P01849 1-136 (TCR, not shown: a dimerising Fc or GST)
TCR alpha: SQQGEEDPQALSIQEGENATMNCSYKTSINNLQWYRQNSGRGLVHLILIRSNEREKHSGRLRVTLDTSKKSSSLLITASRAADTASYFCATGDQTGANNLFFGTGTRLTVIPYIQNPEPAVYQLKDPRSQDSTLCLFTDFDSQINVPKTMESGTFITDKTVLDMKAMDSKSNGAIAWSNQTSFTCQDIFKETNATYPSSDVPCDATLTEKSFETDMNLNFQNLSVMGLRILLLKVAGFNLLMTLRLWSS
TCR beta: DTGVSQNPRHKITKRGQNVTFRCDPISEHNRLYWYRQTLGQGPEFLTYFQNEAQLEKSRLLSDRFSAERPKGSFSTLEIQRTEQGDSAMYLCASSLTRTEKLFFGSGTQLSVLE
B9: TCR_6, P01849 1-136 (TCR, not shown: a dimerising Fc or GST)
TCR alpha: RGEDVEQSLFLSVREGDSSVINCTYTDSSSTYLYWYKQEPGAGLQLLTYIFSNMDMKQDQRLTVLLNKKDKHLSLRIADTQTGDSAIYFCAEKWIIFGKGTRLHILPNIQNPEPAVYQLKDPRSQDSTLCLFTDFDSQINVPKTMESGTFITDKTVLDMKAMDSKSNGAIAWSNQTSFTCQDIFKETNATYPSSDVPCDATLTEKSFETDMNLNFQNLSVMGLRILLLKVAGFNLLMTLRLWSS
TCR beta: B8 TCR beta with R98T, T99P, E100D, K101G, L102Y, F103T, Q109R, S111T, L113V
B10: TCR_4, P01849 1-136 (TCR, not shown: a dimerising Fc or GST)
TCR alpha: GENVEQHPSTLSVQEGDSAVIKCTYSDSASNYFPWYKQELGKGPQLIIDIRSNVGEKKDQRIAVTLNKTAKHFSLHITETQPEDSAVYFCAGRGKLTFGTGTRLTIIPNIQNPEPAVYQLKDPRSQDSTLCLFTDFDSQINVPKTMESGTFITDKTVLDMKAMDSKSNGAIAWSNQTSFTCQDIFKETNATYPSSDVPCDATLTEKSFETDMNLNFQNLSVMGLRILLLKVAGFNLLMTLRLWSS
TCR beta: B8 TCR beta with T97V, T99D
B11: TCR_5, P01849 1-136 (TCR, not shown: a dimerising Fc or GST)
TCR alpha: TQLLEQSPQFLSIQEGENLTVYCNSSSVFSSLQWYRQEPGEGPVLLVTVVTGGEVKKLKRLTFQFGDARKDSSLHITAAQTGDTGLYLCAGAGNNDMRFGAGTRLTVKPNIQNPEPAVYQLKDPRSQDSTLCLFTDFDSQINVPKTMESGTFITDKTVLDMKAMDSKSNGAIAWSNQTSFTCQDIFKETNATYPSSDVPCDATLTEKSFETDMNLNFQNLSVMGLRILLLKVAGFNLLMTLRLWSS
TCR beta: B8 TCR beta with T97V, T99G, E100I, K101E, L102A, S106Q, Q109R, S111T, L113V
B12: TCR_2, P01849 1-136 (TCR, not shown: a dimerising Fc or GST)
TCR alpha: GENVEQHPSTLSVQEGDSAVIKCTYSDSASNYFPWYKQELGKGPQLIIDIRSNVGEKKDQRIAVTLNKTAKHFSLHITETQPEDSAVYFCAAHTPGYSTLTFGKGTMLLVSPDIQNPEPAVYQLKDPRSQDSTLCLFTDFDSQINVPKTMESGTFITDKTVLDMKAMDSKSNGAIAWSNQTSFTCQDIFKETNATYPSSDVPCDATLTEKSFETDMNLNFQNLSVMGLRILLLKVAGFNLLMTLRLWSS
TCR beta: DTGVSQNPRHKITKRGQNVTFRCDPISEHNRLYWYRQTLGQGPEFLTYFQNEAQLEKSRLLSDRFSAERPKGSFSTLEIQRTEQGDSAMYLCASSPRAGGETQYFGPGTRLLVLE

What was measured:
[1] = molecular target: T1, Astn1 P1268L (control peptide) peptide …; test: cytokine release
[2] = molecular target: T2, HA-1^H (minor histocompatibility …); test: multimer staining
From the text: Transduced CD8 T cells were enriched by FACS using the murine constant beta region as a marker for transduction. After expansion of these cells, they were stained with an HA-1^H-MHC-multimer and antibodies against CD8 and the murine constant beta region (mCb) and analyzed by flow cytometry.
The nucleotide sequences of the isolated TCRs were codon optimized using the GeneOptimizer™ algorithm (ThermoFisher) and the constant regions were murinized. Codon optimized and murinized TCRs were used for all further experiments described herein. They were stained with an HA-1^H-MHC-multimer (immunAware) and antibodies against CD8 and the murine constant beta region. […] (FIG. 1)

[3] = molecular target: T3, HA-1^R (minor histocompatibility …); test: cytokine release
[4] = molecular target: T2, HA-1^H (minor histocompatibility …); test: killing
[5] = molecular target: HA-1^R-peptide (…) loaded on HLA-A*02:01 encoded molecules on T2 cells (human); test: cell-based or functional assay

Row | Binder | binding result [1] | binding result [2] | peptide concentration needed for recognition (IFN-γ release), relative to HA-1^H [5] [times] | other results
1 | B1 | no recognition | recognises | – | –
2 | B2 | no recognition | recognises | – | binding result [3]: no recognition
3 | B3 | no recognition | recognises | – | –
4 | B4 | no recognition | recognises | – | –
5 | B5 | no recognition | recognises | – | –
6 | B6 | no recognition | – | – | binding result [4]: recognises
7 | B7 | – | – | > 10000 | –
8 | B8 | – | – | > 10000 | –
9 | B9 | – | – | > 10000 | –
10 | B10 | – | – | > 10000 | –
11 | B11 | – | – | > 10000 | –
12 | B12 | – | – | > 10000 | –
